Assay results: article PMC9714666 (Frontiers in Immunology, 2022)

Target: 6x(His)-tagged SARS-CoV-1 RBD (SARS-CoV-1, strain , UniProt P59594)
Experiment: BLI
Conditions: both partners purified

B1: D27LE (antibody, V domains shown)
VH: QVQLQQSGAEVKKPGSSVKVSCKASGGTFGNWSISWVRQAPGQGLEWMGGIDPSRGEATYAQKFQGRVTITTDESTSTAYMELSSLRSEDTAVYYCARETWYTSGGMDVWGQGTTVTVSS
VL: SYELTQPPSVSVAPGKTARITCGGNNIGRKSVHWYQQKPGQAPVLVVYDDSDRPSGIPERFSGSNSGNTATLTISRVEAGDEADYYCQVYDLWSSDYVFGTGTKVEIK
  Kd: < 0.01 nM
